Reference: paper PMC5156392, “Structure and Mechanism of Staphylococcus aureus TarS, the Wall Teichoic Acid β-glycosyltransferase Involved in Methicillin Resistance” (PLoS Pathogens, 2016)

Key:
[1] = system: CC(=O)N[C@H]1[C@@H](OP(=O)(O)OP(=O)(O)OC[C@H]2O[C@@H](n3ccc(=O)[nH]c3=O)[C@H](O)[C@@H]2O)O[C@H](CO)[C@@H](O)[C@@H]1O; experiment: purified protein; details: donor hydrolysis reaction without polyRboP acceptor; varied UDP-GlcNAc
[2] = molecular target: the molecule itself; experiment: crystal structure
[3] = molecular target: the molecule itself; experiment: SEC-MALS; Superdex 200 HR 10/30, 30 mM Hepes pH 7.3, 500 mM NaCl, 5% glycerol; full-length TarS run at 25 μM

Molecule: TarS1-349 (Staphylococcus aureus subsp. aureus Mu50)
- Km [1]: 21 ± 2 µM

Molecule: full-length TarS (TarS 1-573; wild-type) (Staphylococcus aureus subsp. aureus Mu50)
- Km [1]: 45 ± 3 µM

B1: TarS_(217-573) (domain or fragment)
chain: VSPEDFYEVMRLIAVEILNADLEEAHKDQILAEFLNRHFSFSRTNGFSLKVKLEEQPQWINALGDFIQAVPERVDALVMSKLRPLLHYARAKDIDNYRTVEESYRQGQYYRFDIVDGKLNIQFNEGEPYFEGIDIAKPKVKMTAFKFDNHKIVTELTLNEFMIGEGHYDVRLKLHSRNKKHTMYVPLSVNANKQYRFNIMLEDIKAYLPKEKIWDVFLEVQIGTEVFEVRVGNQRNKYAYTAETSALIHLNNDFYRLTPYFTKDFNNISLYFTAITLTDSISMKLKGKNKIILTGLDRGYVFEEGMASVVLKDDMIMGMLSQTSENEVEILLSKDIKKRDFKNIVKLNTAHMTYSLK
notes: source: limited thermolysin proteolysis of purified full-length TarS (from E. coli Rosetta (DE3)), crystallised directly
- binding result [2]: binds

B2: Staphylococcus aureus TarS, full-length protein (1-573) (enzyme)
chain: MMKFSVIVPTYNSEKYITELLNSLAKQDFPKTEFEVVVVDDCSTDQTLQIVEKYRNKLNLKVSQLETNSGGPGKPRNVALKQAEGEFVLFVDSDDYINKETLKDAAAFIDEHHSDVLLIKMKGVNGRGVPQSMFKETAPEVTLLNSRIIYTLSPTKIYRTALLKDNDIYFPEELKSAEDQLFTMKAYLNANRISVLSDKAYYYATKREGEHMSSAYVSPEDFYEVMRLIAVEILNADLEEAHKDQILAEFLNRHFSFSRTNGFSLKVKLEEQPQWINALGDFIQAVPERVDALVMSKLRPLLHYARAKDIDNYRTVEESYRQGQYYRFDIVDGKLNIQFNEGEPYFEGIDIAKPKVKMTAFKFDNHKIVTELTLNEFMIGEGHYDVRLKLHSRNKKHTMYVPLSVNANKQYRFNIMLEDIKAYLPKEKIWDVFLEVQIGTEVFEVRVGNQRNKYAYTAETSALIHLNNDFYRLTPYFTKDFNNISLYFTAITLTDSISMKLKGKNKIILTGLDRGYVFEEGMASVVLKDDMIMGMLSQTSENEVEILLSKDIKKRDFKNIVKLNTAHMTYSLK
notes: also called full-length TarS; wild-type TarS; source: E. coli Rosetta (DE3), pET41b, purified (Heparin HP, Superdex 200)
- stoichiometry N [3]: 3
